Laboratory results as given in PMC4741438, “Targeting the SIN3A-PF1 interaction inhibits epithelial to mesenchymal transition and maintenance of a stem cell phenotype in triple negative breast cancer” (Oncotarget, 2015).

Target: PAH2 domain of mSin3A
Test: fluorescence polarisation

PAH2 domain of mSin3A, sequence (Q60520 whole entry, the tested form may be a part): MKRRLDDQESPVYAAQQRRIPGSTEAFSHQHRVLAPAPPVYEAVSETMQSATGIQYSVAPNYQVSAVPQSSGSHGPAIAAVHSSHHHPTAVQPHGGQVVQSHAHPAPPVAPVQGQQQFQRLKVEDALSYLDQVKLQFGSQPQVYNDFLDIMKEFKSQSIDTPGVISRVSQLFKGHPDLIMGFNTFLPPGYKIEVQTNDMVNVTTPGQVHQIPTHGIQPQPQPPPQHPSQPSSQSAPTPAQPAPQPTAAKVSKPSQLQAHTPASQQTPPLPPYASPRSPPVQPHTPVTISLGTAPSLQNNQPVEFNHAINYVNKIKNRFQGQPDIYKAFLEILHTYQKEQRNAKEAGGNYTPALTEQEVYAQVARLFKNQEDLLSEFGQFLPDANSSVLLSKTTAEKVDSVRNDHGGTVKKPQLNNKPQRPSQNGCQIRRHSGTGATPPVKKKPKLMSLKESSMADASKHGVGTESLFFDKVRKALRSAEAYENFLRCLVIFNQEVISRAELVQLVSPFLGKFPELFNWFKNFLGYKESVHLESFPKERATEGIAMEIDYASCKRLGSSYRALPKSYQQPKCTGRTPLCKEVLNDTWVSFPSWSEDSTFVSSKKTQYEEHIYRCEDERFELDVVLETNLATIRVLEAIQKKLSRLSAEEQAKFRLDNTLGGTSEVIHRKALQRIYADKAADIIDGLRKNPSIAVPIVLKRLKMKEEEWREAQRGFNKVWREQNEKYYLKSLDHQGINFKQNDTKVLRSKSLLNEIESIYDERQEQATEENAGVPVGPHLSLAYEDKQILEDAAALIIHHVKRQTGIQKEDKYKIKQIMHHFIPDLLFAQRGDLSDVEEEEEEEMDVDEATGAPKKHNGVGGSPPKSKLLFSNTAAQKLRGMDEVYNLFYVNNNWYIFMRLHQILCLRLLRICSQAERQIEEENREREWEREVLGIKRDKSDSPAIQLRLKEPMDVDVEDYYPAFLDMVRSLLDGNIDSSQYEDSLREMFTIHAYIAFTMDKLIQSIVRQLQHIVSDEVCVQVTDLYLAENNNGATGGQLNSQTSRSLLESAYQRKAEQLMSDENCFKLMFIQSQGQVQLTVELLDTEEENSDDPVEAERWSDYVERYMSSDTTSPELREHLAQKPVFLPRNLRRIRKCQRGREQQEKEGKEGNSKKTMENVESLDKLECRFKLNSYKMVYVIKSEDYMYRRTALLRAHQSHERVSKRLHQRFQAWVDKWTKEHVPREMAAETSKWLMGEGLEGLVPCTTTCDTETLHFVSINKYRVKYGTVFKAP

Substance | IC50 [µM]
Tat-SID (MAD-SID peptide) | 1.26
PF1-SID peptide | 15.6
